Data from the supplement of paper PMC9112550, “Optimization of the antimicrobial peptide Bac7 by deep mutational scanning” (BMC Biology, 2022).

These sequences were tested on Escherichia coli TOP10 (assay: shrunken log2 fold change of peptide-encoding DNA abundance (4.5 h post-induction vs induction); higher = less antimicrobial activity (less host growth inhibition)). Conditions: time post-induction: 4.5 h; library: site-saturation at positions 5, 18, 19, 20.
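Note: peptides expressed intracellularly from a pBAD plasmid library in pooled LB shake-flask culture, induced with 0.3% L-arabinose, DNA abundance read by NGS, three biological replicates, DESeq2 with apeglm shrinkage.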

Sequence	shrunken log2 fold change
RRIRPRPPRLPRPRPRPESSPRP	1.89
RRIRTRPPRLPRPRPRPICYPRP	-0.387
RRIRYRPPRLPRPRPRPHYQPRP	-0.522
RRIRCRPPRLPRPRPRPHRPPRP	-0.0186
RRIRYRPPRLPRPRPRPTYGPRP	-0.196
RRIRKRPPRLPRPRPRPHMYPRP	-0.131
RRIRSRPPRLPRPRPRPLYMPRP	-1
RRIRARPPRLPRPRPRPKRMPRP	0.258
RRIRFRPPRLPRPRPRPFLLPRP	-0.696
RRIRMRPPRLPRPRPRPIACPRP	0.106
RRIRHRPPRLPRPRPRPWMVPRP	-0.0202
RRIRDRPPRLPRPRPRPCKVPRP	-0.202
RRIRDRPPRLPRPRPRPRDQPRP	0.477
RRIRTRPPRLPRPRPRPGGGPRP	0.759
RRIRLRPPRLPRPRPRPRPDPRP	0.177
RRIRPRPPRLPRPRPRPSDWPRP	0.248
RRIRCRPPRLPRPRPRPAQRPRP	0.613
RRIRVRPPRLPRPRPRPMYWPRP	-0.0619
RRIRKRPPRLPRPRPRPSCEPRP	0.401
RRIRNRPPRLPRPRPRPCVVPRP	-0.0224
RRIRQRPPRLPRPRPRPHQCPRP	-0.401
RRIRCRPPRLPRPRPRPHEFPRP	-0.267
RRIRIRPPRLPRPRPRPLIYPRP	-0.255
RRIRRRPPRLPRPRPRPPCFPRP	0.741
RRIRTRPPRLPRPRPRPHVLPRP	-0.193

Sequence	shrunken log2 fold change
RRIRYRPPRLPRPRPRPCNEPRP	0.0341
RRIRRRPPRLPRPRPRPNHPPRP	-0.0297
RRIRHRPPRLPRPRPRPWDCPRP	-0.00608
RRIRHRPPRLPRPRPRPGRVPRP	-0.129
RRIRERPPRLPRPRPRPSKRPRP	-0.00769
RRIRRRPPRLPRPRPRPLHSPRP	0.357
RRIRKRPPRLPRPRPRPQVWPRP	-0.0233
RRIRERPPRLPRPRPRPEPQPRP	0.519
RRIRFRPPRLPRPRPRPDPDPRP	-0.113
RRIRRRPPRLPRPRPRPMFTPRP	0.0616
RRIRKRPPRLPRPRPRPWAPPRP	0.0466
RRIRRRPPRLPRPRPRPYSVPRP	0.0601
RRIRYRPPRLPRPRPRPNKCPRP	-0.269
RRIRDRPPRLPRPRPRPDFVPRP	1.35
RRIRVRPPRLPRPRPRPDTLPRP	-0.712
RRIRQRPPRLPRPRPRPTHIPRP	-0.387
RRIRRRPPRLPRPRPRPQNDPRP	-0.212
RRIRDRPPRLPRPRPRPPCTPRP	0.00986
RRIRNRPPRLPRPRPRPGPNPRP	0.0126
RRIRLRPPRLPRPRPRPGGHPRP	0.0643
RRIRTRPPRLPRPRPRPSTCPRP	-0.175
RRIRPRPPRLPRPRPRPQMIPRP	-0.594
RRIRERPPRLPRPRPRPVWAPRP	0.0658
RRIRMRPPRLPRPRPRPFNHPRP	-0.367
RRIRKRPPRLPRPRPRPKTPPRP	0.477

Sequence	shrunken log2 fold change
RRIRWRPPRLPRPRPRPDVIPRP	-0.118
RRIRQRPPRLPRPRPRPKICPRP	-0.101
RRIRDRPPRLPRPRPRPEVPPRP	0.0916
RRIRSRPPRLPRPRPRPAPAPRP	0.741
RRIRHRPPRLPRPRPRPRDPPRP	-0.153
RRIRKRPPRLPRPRPRPQTNPRP	0.271
RRIRDRPPRLPRPRPRPCDGPRP	-0.0192
RRIRGRPPRLPRPRPRPWIKPRP	-0.0249
RRIRHRPPRLPRPRPRPTHRPRP	0.0822
RRIRTRPPRLPRPRPRPVDPPRP	-0.175
RRIRGRPPRLPRPRPRPTKNPRP	0.69
RRIRKRPPRLPRPRPRPGWFPRP	0.139
RRIRARPPRLPRPRPRPHFGPRP	0.0349
RRIRPRPPRLPRPRPRPCHCPRP	0.153
RRIRNRPPRLPRPRPRPENHPRP	-0.124
RRIRIRPPRLPRPRPRPKDHPRP	-0.222
RRIRRRPPRLPRPRPRPLSSPRP	0.234
RRIRGRPPRLPRPRPRPNLMPRP	0.144
RRIRARPPRLPRPRPRPCLIPRP	-0.191
RRIRFRPPRLPRPRPRPNSWPRP	-0.0266
RRIRARPPRLPRPRPRPVCPPRP	0.139
RRIRCRPPRLPRPRPRPKGWPRP	0.811
RRIRDRPPRLPRPRPRPPWSPRP	0.31
RRIRFRPPRLPRPRPRPEDWPRP	0.181
RRIRFRPPRLPRPRPRPNEEPRP	-0.0458

Sequence	shrunken log2 fold change
RRIRYRPPRLPRPRPRPMSCPRP	-0.115
RRIRWRPPRLPRPRPRPDCAPRP	0.97
RRIRNRPPRLPRPRPRPPDEPRP	1.28
RRIRHRPPRLPRPRPRPGGDPRP	0.0994
RRIRARPPRLPRPRPRPFFHPRP	-0.0215
RRIRNRPPRLPRPRPRPHKQPRP	-0.359
RRIRGRPPRLPRPRPRPLNEPRP	0.57
RRIRQRPPRLPRPRPRPSKGPRP	0.0585
RRIRWRPPRLPRPRPRPVNWPRP	0.537
RRIRMRPPRLPRPRPRPEVSPRP	0.221
RRIRWRPPRLPRPRPRPEDRPRP	0.213
RRIRMRPPRLPRPRPRPLVTPRP	-0.107
RRIRKRPPRLPRPRPRPIEQPRP	-0.0195
RRIRGRPPRLPRPRPRPSLCPRP	1.73
RRIRERPPRLPRPRPRPMAHPRP	-0.0343
RRIRMRPPRLPRPRPRPDLCPRP	0.196
RRIRNRPPRLPRPRPRPKAPPRP	-0.0518
RRIRSRPPRLPRPRPRPCPYPRP	0.0125
RRIRKRPPRLPRPRPRPSAAPRP	0.624
RRIRLRPPRLPRPRPRPKNLPRP	0.0548
RRIRTRPPRLPRPRPRPVFNPRP	-0.65
RRIRMRPPRLPRPRPRPFCPPRP	0.0248
RRIRYRPPRLPRPRPRPKHVPRP	-0.4
RRIRIRPPRLPRPRPRPWRQPRP	0.0165
RRIRKRPPRLPRPRPRPSKEPRP	0.0111

Sequence	shrunken log2 fold change
RRIRNRPPRLPRPRPRPSFNPRP	-0.143
RRIRRRPPRLPRPRPRPRAQPRP	0.5
RRIRPRPPRLPRPRPRPHSDPRP	0.0137
RRIRERPPRLPRPRPRPDCRPRP	0.0169
RRIRWRPPRLPRPRPRPCLPPRP	-0.341
RRIRHRPPRLPRPRPRPHLKPRP	-0.124
RRIRYRPPRLPRPRPRPSQGPRP	-0.031
RRIRTRPPRLPRPRPRPSLTPRP	-0.452
RRIRYRPPRLPRPRPRPFYRPRP	-0.0056
RRIRFRPPRLPRPRPRPGCSPRP	-0.0796
RRIRMRPPRLPRPRPRPAFYPRP	-0.0165
RRIRARPPRLPRPRPRPNEQPRP	0.234
RRIRIRPPRLPRPRPRPFWKPRP	0.0187
RRIRFRPPRLPRPRPRPFEQPRP	-0.311
RRIRSRPPRLPRPRPRPNPSPRP	-0.00593
RRIRTRPPRLPRPRPRPAIKPRP	0.957
RRIRMRPPRLPRPRPRPRQKPRP	0.183
RRIRKRPPRLPRPRPRPLFIPRP	-0.291
RRIRIRPPRLPRPRPRPQNDPRP	-0.296
RRIRCRPPRLPRPRPRPAHWPRP	0.337
RRIRRRPPRLPRPRPRPFWCPRP	-0.18
RRIRFRPPRLPRPRPRPPPPPRP	1.58
RRIRHRPPRLPRPRPRPPRYPRP	0.0399
RRIRMRPPRLPRPRPRPYPPPRP	0.133
RRIRQRPPRLPRPRPRPVAFPRP	-0.0706
